Assay results from the supplement of paper PMC10567573.

B1: MYL5 (parent)
chain: DVAGNLDYKALSYVITHGEEKEE
B2: NR2F2 (parent)
chain: NIPFFPDLQITDQVALLRLTWSEL

Variants of: B1
Assay: protein stability index of a GFP-peptide fusion (GPS, HEK-293T) (PSI 1-6); higher = more stable
Conditions: c terminus: native
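Also: lentivirally expressed fusions sorted by FACS into six bins by GFP to DsRed ratio, PSI derived from sequencing read proportions per bin multiplied by bin number.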

Protein stability index, by site and new letter:
E22: Q 4.82
E20: N 2.19
Y13: Q 2.33
D1: T 2.13
I15: T 2.81, H 3.3

Variants of: B2
Assay: as above
Conditions: c terminus: a fixed tail appended

Protein stability index: each site, then its substitutions
T11: Q 2.47, L 4.1, V 1.99, K 2.55, N 1.67, I 2.59, R 2.52, M 3.1, D 1.61, Y 1.46, A 3.71, E 2.06, W 3.19, C 2.25, G 2.28, F 3.29, S 2.96, H 2.89, P 2.02
L16: K 1.61, Q 2.33, D 2.02, N 2.03, M 3.26, V 2.34, W 1.65, G 2.02, C 2.65, T 3.48, H 1.67, R 1.84, E 1.63, S 2.1, I 2.59, F 2.62, A 2.41, P 1.86
Q9: C 2.34, V 4.4, E 2.15, P 1.93, W 2.96, H 2.84, L 3.06, T 2.26, I 1.92, S 2.83, Y 2.88, F 2.56, A 2.86, D 2.5, N 2.63, K 1.89, R 2.36, M 2.9, G 4.13
W21: Y 1.92, S 2.36, I 1.65, M 2, N 2.37, H 2, V 2.4, G 2.08, Q 2.21, K 2.35, T 1.79, C 1.87, L 2.08, R 2.14, D 3.41, F 2.36, A 2.49, P 2.42, E 2.78
T20: N 1.56, K 1.59, L 2.23, P 2.02, I 4.49, S 3.1, R 2.21, F 1.47, M 1.89, Q 2.08, H 2.49, A 1.83, E 1.96, D 1.81, V 1.95, G 2.23, Y 2.69, C 2.16, W 2.46
D12: E 3.52, K 3.13, C 2.46, F 2.42, Y 4.16, P 4.7, I 3.82, G 2.42, S 3.57, W 3.74, M 2.37, V 4.16, A 3.01, N 2.42, H 3.3, L 2.12, T 2.86, R 1.66
L17: Y 2.15, T 3.49, R 1.98, E 2.26, M 2.16, Q 1.99, P 2.37, H 1.54, A 1.49, N 2.59, D 2.08, W 1.92, K 2.43, G 1.92, V 3.46, S 1.79, F 1.46, C 1.79, I 3.52
L19: P 2.24, M 1.76, D 2.28, K 2.12, S 2.15, I 2.3, F 2.73, R 2.08, H 1.53, A 1.99, N 2.4, Y 1.85, W 2.23, Q 2.07, G 2.35, E 2.04, V 3.94, T 2.23, C 2.44
A15: V 2.22, D 1.92, I 3.62, K 1.99, P 1.69, N 2.38, H 1.57, Y 1.67, T 2.41, G 1.19, S 2, F 3.86, C 2.07, M 2.71, R 2.08, E 1.55, L 2.58, Q 1.9, W 2.03
V14: D 1.57, E 1.9, C 3.12, K 2.13, L 2.72, H 1.81, F 2.04, P 1.87, G 1.45, M 2.14, W 3.25, A 1.7, I 2.81, T 2.38, Y 2.03, N 1.89, R 1.78, S 1.74, Q 1.99
Q13: F 1.69, W 2.93, C 3.12, I 4.15, M 4.27, G 1.29, K 2.41, P 2.57, A 2.75, T 3.06, L 4.11, D 1.85, E 2.2, N 1.97, V 2.66, H 3.09, S 2.33, R 1.92
R18: E 2.63, K 2.52, W 3.72, M 2.28, N 2.45, V 2.27, A 2.33, H 1.39, P 2.21, T 2.18, D 1.54, S 2.13, G 2.25, L 2.89, Y 2.75, Q 2.18, C 2.63, F 2.89, I 3.87
L8: M 2.51, S 1.82, N 1.86, Q 2.22, C 1.92, T 2.73, R 1.99, I 2.92, K 2.7, G 1.47, W 2.64, A 2.32, P 2.25, Y 2.05, D 1.98, F 3.11, H 2, V 2.09, E 2.11
L24: R 1.96, N 1.97, D 2.11, M 2.87, E 2.02, G 1.65, C 2.62, P 1.88, W 2.55, S 1.9, Y 1.65, V 2.22, H 2.68, A 1.64, F 1.99, K 2.25, T 1.98, Q 1.9
S22: T 2.19, P 1.82, F 3.38, Y 3.13, E 2.1, I 2.24, H 2.71, A 2.17, K 1.68, M 3.55, V 1.67, C 3.38, W 3.5, N 2.28, Q 1.91, L 3.32, G 3.17, D 2.4, R 1.53
D7: Q 3.44, S 3.27, P 2.46, Y 2.79, T 4.43, W 4.12, R 2.46, V 2, N 2.78
I10: S 2.09, Y 3.02, R 1.49, M 2.49, D 1.68, V 2.68, E 1.68, N 2.05, G 1.4, W 2.39, T 1.72, L 2.47, A 1.75, P 2.2, Q 2.31, K 2.58, H 2.34, F 2.95, C 2.15
E23: D 3.12, G 2.17, A 2.71, L 2.57, I 2.96, R 2.02, C 3.21, N 3.71, K 1.55, V 1.76, W 3.24, M 3.42, Q 2.12, H 3.17, P 2.24, F 3.75, S 2.97, T 3.56, Y 2.74
